The Kd is the concentration at which binding is half-saturated.

Assay in all cases: ELISA; FXIII proteins or collagen type III coated on wells at 10 µg/mL (overnight, 4°C), blocked with 0.5% BSA; GPVI-Fc2 added at varied concentrations; bound GPVI detected by 1G5/IRDye 800CW anti-mouse antibody; KD from binding curves (Figure 1B)
Background: An ELISA detects its analyte on a solid surface through an enzyme-linked reagent.

For assay [1], the target named is FXIII A-subunit (activated) (rh-FXIIIAa), thrombin-activated form of rh-FXIIIA2 (human) (UniProt P00488).
Assay [2] addresses FXIII A-subunit (rh-FXIIIA2), recombinant, not fully activated form (human) (UniProt P00488).
Assay [3] addresses Plasma FXIII (FXIIIA2B2), tetrameric, not activated (human) (UniProt P00488).
The target of the next assay is collagen type III (UniProt P02461).
Sequence of UniProt P02461 (P02461 24-1221): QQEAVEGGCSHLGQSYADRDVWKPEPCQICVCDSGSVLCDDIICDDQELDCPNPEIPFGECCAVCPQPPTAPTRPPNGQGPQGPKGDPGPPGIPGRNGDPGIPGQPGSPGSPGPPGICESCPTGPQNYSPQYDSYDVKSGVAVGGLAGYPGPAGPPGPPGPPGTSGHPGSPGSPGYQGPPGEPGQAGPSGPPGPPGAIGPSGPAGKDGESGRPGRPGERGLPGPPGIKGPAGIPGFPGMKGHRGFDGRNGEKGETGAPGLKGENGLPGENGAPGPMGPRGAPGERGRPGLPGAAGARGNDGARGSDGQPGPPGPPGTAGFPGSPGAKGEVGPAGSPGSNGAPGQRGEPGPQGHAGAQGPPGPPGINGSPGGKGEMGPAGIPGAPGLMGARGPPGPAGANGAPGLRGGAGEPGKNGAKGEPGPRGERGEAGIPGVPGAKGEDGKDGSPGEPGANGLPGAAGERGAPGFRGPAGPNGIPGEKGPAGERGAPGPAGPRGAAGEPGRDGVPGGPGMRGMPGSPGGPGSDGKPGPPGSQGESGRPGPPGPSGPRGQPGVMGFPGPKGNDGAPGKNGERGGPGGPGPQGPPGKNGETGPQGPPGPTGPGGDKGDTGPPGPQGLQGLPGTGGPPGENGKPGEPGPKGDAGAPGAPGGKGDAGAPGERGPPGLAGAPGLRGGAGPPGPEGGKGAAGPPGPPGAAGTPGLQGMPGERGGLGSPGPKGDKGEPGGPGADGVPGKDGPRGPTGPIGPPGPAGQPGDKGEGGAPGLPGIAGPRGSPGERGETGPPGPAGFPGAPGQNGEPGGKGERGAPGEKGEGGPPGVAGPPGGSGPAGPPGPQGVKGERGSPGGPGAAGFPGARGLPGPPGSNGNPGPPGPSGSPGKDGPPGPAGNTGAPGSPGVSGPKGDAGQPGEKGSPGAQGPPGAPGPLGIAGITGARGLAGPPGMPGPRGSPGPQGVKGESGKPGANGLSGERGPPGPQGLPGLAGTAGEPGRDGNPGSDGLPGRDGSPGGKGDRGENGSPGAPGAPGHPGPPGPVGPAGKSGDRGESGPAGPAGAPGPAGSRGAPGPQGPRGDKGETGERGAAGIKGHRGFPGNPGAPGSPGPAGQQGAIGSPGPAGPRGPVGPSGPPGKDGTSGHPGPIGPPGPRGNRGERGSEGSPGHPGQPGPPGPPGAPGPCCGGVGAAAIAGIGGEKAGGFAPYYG

On to “GPVI-Fc2 (recombinant human GPVI extracellular domain, dimer) (from UniProt Q9HCN6 21-267) (Fc fusion)”, for which the Kd in assay [1] turned out to be 140 nM; in assay [2], 366 nM; in assay [3] it was 216 nM; with collagen type III, 183 nM.

The values are drawn from paper PMC9035508.
